In publication PMC6853222:

How the values were obtained:
[1] = target: GII.3 huNoV TV24 P protein (GII.3 human norovirus TV24); assay: crystal structure; TV24 P protein, native and with A tetrasaccharide; hanging drop vapor diffusion, 9.6% PEG 3350, 160 mM ammonium citrate tribasic pH 7.0, 20 mM tri-sodium citrate pH 5.6, 500 mM 1,6-hexanediol, 20 °C; homodimers in the asymmetric unit
[2] = target: GII.11 porNoV VA34 P protein (GII.11 porcine norovirus VA34); assay: crystal structure; VA34 P protein, native; hanging drop vapor diffusion, 100 mM Tris pH 8.0, 16% PEG 3350, 6% tacsimate pH 8.0, 20 °C

Substance: GII.3 huNoV TV24 P protein (domain or fragment)
- stoichiometry N [1]: 2

Substance: GII.11 porNoV VA34 P protein (domain or fragment)
- stoichiometry N [2]: 2
